Columns and labels:
[1] = biological target: anti-A2M antibody (MAB) labeled with a donor fluorophore; assay: competitive TR-FRET, competitor acceptor-labeled isolated A2M, whole blood; A2M 1000 ug/mL, multiplex cals, 5 min (FIG. 2I)
[2] = biological target: anti-A2M antibody (MAB) labeled with a donor fluorophore; assay: competitive TR-FRET, competitor acceptor-labeled isolated A2M; unlabeled A2M 0 ug/mL, mean of 4 replicates (FIG. 2G)
[3] = biological target: anti-A2M antibody (MAB) labeled with a donor fluorophore; assay: competitive TR-FRET, competitor acceptor-labeled isolated A2M, whole blood; A2M 200 ug/mL, singleplex cals, 30 min (FIG. 2I)
[4] = biological target: anti-A2M antibody (MAB) labeled with a donor fluorophore; assay: competitive TR-FRET, competitor acceptor-labeled isolated A2M, whole blood; A2M 1000 ug/mL, multiplex cals, 30 min (FIG. 2I)
[5] = biological target: anti-A2M antibody (MAB) labeled with a donor fluorophore; assay: competitive TR-FRET, competitor acceptor-labeled isolated A2M, whole blood; A2M 1000 ug/mL, singleplex cals, 5 min (FIG. 2I)
[6] = biological target: anti-A2M antibody (MAB) labeled with a donor fluorophore; assay: competitive TR-FRET, competitor acceptor-labeled isolated A2M, whole blood; A2M 2000 ug/mL, singleplex cals, 5 min (FIG. 2I)
[7] = biological target: anti-A2M antibody (MAB) labeled with a donor fluorophore; assay: competitive TR-FRET, competitor acceptor-labeled isolated A2M, whole blood; A2M 2000 ug/mL, multiplex cals, 30 min (FIG. 2I)
[8] = biological target: anti-A2M antibody (MAB) labeled with a donor fluorophore; assay: competitive TR-FRET, competitor acceptor-labeled isolated A2M; unlabeled A2M 1000 ug/mL, mean of 4 replicates (FIG. 2G)
[9] = biological target: anti-A2M antibody (MAB) labeled with a donor fluorophore; assay: competitive TR-FRET, competitor acceptor-labeled isolated A2M, whole blood; A2M 4000 ug/mL, singleplex cals, 5 min (FIG. 2I)
[10] = biological target: anti-A2M antibody (MAB) labeled with a donor fluorophore; assay: competitive TR-FRET, competitor acceptor-labeled isolated A2M, whole blood; A2M 0 ug/mL, multiplex cals, 5 min (FIG. 2I)
[11] = biological target: anti-A2M antibody (MAB) labeled with a donor fluorophore; assay: competitive TR-FRET, competitor acceptor-labeled isolated A2M, whole blood; A2M 0 ug/mL, singleplex cals, 5 min (FIG. 2I)
[12] = biological target: anti-A2M antibody (MAB) labeled with a donor fluorophore; assay: competitive TR-FRET, competitor acceptor-labeled isolated A2M, whole blood; A2M 200 ug/mL, singleplex cals, 5 min (FIG. 2I)
[13] = biological target: anti-A2M antibody (MAB) labeled with a donor fluorophore; assay: competitive TR-FRET, competitor acceptor-labeled isolated A2M, whole blood; A2M 4000 ug/mL, multiplex cals, 30 min (FIG. 2I)
[14] = biological target: anti-A2M antibody (MAB) labeled with a donor fluorophore; assay: competitive TR-FRET, competitor acceptor-labeled isolated A2M, whole blood; A2M 500 ug/mL, singleplex cals, 5 min (FIG. 2I)
[15] = biological target: anti-A2M antibody (MAB) labeled with a donor fluorophore; assay: competitive TR-FRET, competitor acceptor-labeled isolated A2M; unlabeled A2M 4000 ug/mL, mean of 4 replicates (FIG. 2G)
[16] = biological target: anti-A2M antibody (MAB) labeled with a donor fluorophore; assay: competitive TR-FRET, competitor acceptor-labeled isolated A2M; unlabeled A2M 200 ug/mL, mean of 4 replicates (FIG. 2G)
[17] = biological target: anti-A2M antibody (MAB) labeled with a donor fluorophore; assay: competitive TR-FRET, competitor acceptor-labeled isolated A2M, whole blood; A2M 200 ug/mL, multiplex cals, 30 min (FIG. 2I)
[18] = biological target: anti-A2M antibody (MAB) labeled with a donor fluorophore; assay: competitive TR-FRET, competitor acceptor-labeled isolated A2M, whole blood; A2M 0 ug/mL, multiplex cals, 30 min (FIG. 2I)
[19] = biological target: anti-A2M antibody (MAB) labeled with a donor fluorophore; assay: competitive TR-FRET, competitor acceptor-labeled isolated A2M; unlabeled A2M 2000 ug/mL, mean of 4 replicates (FIG. 2G)
[20] = biological target: anti-A2M antibody (MAB) labeled with a donor fluorophore; assay: competitive TR-FRET, competitor acceptor-labeled isolated A2M, whole blood; A2M 4000 ug/mL, singleplex cals, 30 min (FIG. 2I)
[21] = biological target: anti-A2M antibody (MAB) labeled with a donor fluorophore; assay: competitive TR-FRET, competitor acceptor-labeled isolated A2M, whole blood; A2M 500 ug/mL, multiplex cals, 30 min (FIG. 2I)
[22] = biological target: anti-A2M antibody (MAB) labeled with a donor fluorophore; assay: competitive TR-FRET, competitor acceptor-labeled isolated A2M, whole blood; A2M 4000 ug/mL, multiplex cals, 5 min (FIG. 2I)
[23] = biological target: anti-A2M antibody (MAB) labeled with a donor fluorophore; assay: competitive TR-FRET, competitor acceptor-labeled isolated A2M, whole blood; A2M 1000 ug/mL, singleplex cals, 30 min (FIG. 2I)
[24] = biological target: anti-A2M antibody (MAB) labeled with a donor fluorophore; assay: competitive TR-FRET, competitor acceptor-labeled isolated A2M, whole blood; A2M 500 ug/mL, singleplex cals, 30 min (FIG. 2I)
[25] = biological target: anti-A2M antibody (MAB) labeled with a donor fluorophore; assay: competitive TR-FRET, competitor acceptor-labeled isolated A2M, whole blood; A2M 2000 ug/mL, singleplex cals, 30 min (FIG. 2I)
[26] = biological target: anti-A2M antibody (MAB) labeled with a donor fluorophore; assay: competitive TR-FRET, competitor acceptor-labeled isolated A2M; unlabeled A2M 500 ug/mL, mean of 4 replicates (FIG. 2G)
[27] = biological target: anti-A2M antibody (MAB) labeled with a donor fluorophore; assay: competitive TR-FRET, competitor acceptor-labeled isolated A2M, whole blood; A2M 500 ug/mL, multiplex cals, 5 min (FIG. 2I)
[28] = biological target: anti-A2M antibody (MAB) labeled with a donor fluorophore; assay: competitive TR-FRET, competitor acceptor-labeled isolated A2M, whole blood; A2M 200 ug/mL, multiplex cals, 5 min (FIG. 2I)
[29] = biological target: anti-A2M antibody (MAB) labeled with a donor fluorophore; assay: competitive TR-FRET, competitor acceptor-labeled isolated A2M, whole blood; A2M 0 ug/mL, singleplex cals, 30 min (FIG. 2I)
[30] = biological target: anti-A2M antibody (MAB) labeled with a donor fluorophore; assay: competitive TR-FRET, competitor acceptor-labeled isolated A2M, whole blood; A2M 2000 ug/mL, multiplex cals, 5 min (FIG. 2I)

B1: A2M (alpha-2-macroglobulin), unlabeled calibrator / analyte (protein)
chain: SVSGKPQYMVLVPSLLHTETTEKGCVLLSYLNETVTVSASLESVRGNRSLFTDLEAENDVLHCVAFAVPKSSSNEEVMFLTVQVKGPTQEFKKRTTVMVKNEDSLVFVQTDKSIYKPGQTVKFRVVSMDENFHPLNELIPLVYIQDPKGNRIAQWQSFQLEGGLKQFSFPLSSEPFQGSYKVVVQKKSGGRTEHPFTVEEFVLPKFEVQVTVPKIITILEEEMNVSVCGLYTYGKPVPGHVTVSICRKYSDASDCHGEDSQAFCEKFSGQLNSHGCFYQQVKTKVFQLKRKEYEMKLHTEAQIQEEGTVVELTGRQSSEITRTITKLSFVKVDSHFRQGIPFFGQVRLVDGKGVPIPNKVIFIRGNEANYYSNATTDEHGLVQFSINTTNVMGTSLTVRVNYKDRSPCYGYQWVSEEHEEAHHTAYLVFSPSKSFVHLEPMSHELPCGHTQTVQAHYILNGGTLLGLKKLSFYYLIMAKGGIVRTGTHGLLVKQEDMKGHFSISIPVKSDIAPVARLLIYAVLPTGDVIGDSAKYDVENCLANKVDLSFSPSQSLPASHAHLRVTAAPQSVCALRAVDQSVLLMKPDAELSASSVYNLLPEKDLTGFPGPLNDQDNEDCINRHNVYINGITYTPVSSTNEKDMYSFLEDMGLKAFTNSKIRKPKMCPQLQQYEMHGPEGLRVGFYESDVMGRGHARLVHVEEPHTETVRKYFPETWIWDLVVVNSAGVAEVGVTVPDTITEWKAGAFCLSEDAGLGISSTASLRAFQPFFVELTMPYSVIRGEAFTLKATVLNYLPKCIRVSVQLEASPAFLAVPVEKEQAPHCICANGRQTVSWAVTPKSLGNVNFTVSAEALESQELCGTEVPSVPEHGRKDTVIKPLLVEPEGLEKETTFNSLLCPSGGEVSEELSLKLPPNVVEESARASVSVLGDILGSAMQNTQNLLQMPYGCGEQNMVLFAPNIYVLDYLNETQQLTPEIKSKAIGYLNTGYQRQLNYKHYDGSYSTFGERYGRNQGNTWLTAFVLKTFAQARAYIFIDEAHITQALIWLSQRQKDNGCFRSSGSLLNNAIKGGVEDEVTLSAYITIALLEIPLTVTHPVVRNALFCLESAWKTAQEGDHGSHVYTKALLAYAFALAGNQDKRKEVLKSLNEEAVKKDNSVHWERPQKPKAPVGHFYEPQAPSAEVEMTSYVLLAYLTAQPAPTSEDLTSATNIVKWITKQQNAQGGFSSTQDTVVALHALSKYGAATFTRTGKAAQVTIQSSGTFSSKFQVDNNNRLLLQQVSLPELPGEYSMKVTGEGCVYLQTSLKYNILPEKEEFPFALGVQTLPQTCDEPKAHTSFQISLSVSYTGSRSASNMAIVDVKMVSGFIPLKPTVKMLERSNHVSRTEVSSNHVLIYLDKVSNQTLSLFFTVLQDVPVRDLKPAIVKVYDYYETDEFAIAEYNAPCSKDLGNA
F/B [1]: 0.58
F/B Mean [2]: 1
F/B [3]: 0.88
F/B [4]: 0.56
F/B [5]: 0.58
F/B [6]: 0.43
F/B [7]: 0.45
F/B Mean [8]: 0.666
F/B [9]: 0.33
F/B [10]: 1
F/B [11]: 1
F/B [12]: 0.88
F/B [13]: 0.33
F/B [14]: 0.72
F/B Mean [15]: 0.393
F/B Mean [16]: 0.905
F/B [17]: 0.87
F/B [18]: 1
F/B Mean [19]: 0.532
F/B [20]: 0.33
F/B [21]: 0.74
F/B [22]: 0.34
F/B [23]: 0.59
F/B [24]: 0.71
F/B [25]: 0.43
F/B Mean [26]: 0.795
F/B [27]: 0.71
F/B [28]: 0.83
F/B [29]: 1
F/B [30]: 0.45

— US20230139053A1
